{
  "source": "patent US20150218534A1",
  "about": "“MODIFIED DNA POLYMERASE” (TOYOBO CO., LTD., priority 2012, published 2015)",
  "molecules": {"B1": {"name": "KOD P36R: modified KOD DNA polymerase with P36R (protein, listed as Thermococcus kodakaraensis)", "chain": "MILDTDYITEDGKPVIRIFKKENGEFKIEYDRTFERYFYALLKDDSAIEEVKKITAERHGTVVTVKRVEKVQKKFLGRPVEVWKLYFTHPQDVPAIRDKIREHPAVIDIYEYDIPFAKRYLIDKGLVPMEGDEELKMLAFDIETLYHEGEEFAEGPILMISYADEEGARVITWKNVDLPYVDVVSTEREMIKRFLRVVKEKDPDVLITYNGDNFDFAYLKKRCEKLGINFALGRDGSEPKIQRMGDRFAVEVKGRIHFDLYPVIRRTINLPTYTLEAVYEAVFGQPKEKVYAEEITTAWETGENLERVARYSMEDAKVTYELGKEFLPMEAQLSRLIGQSLWDVSRSSTGNLVEWFLLRKAYERNELAPNKPDEKELARRRQSYEGGYVKEPERGLWENIVYLDFRSLYPSIIITHNVSPDTLNREGCKEYDVAPQVGHRFCKDFPGFIPSLLGDLLEERQKIKKKMKATIDPIERKLLDYRQRAIKILANSYYGYYGYARARWYCKECAESVTAWGREYITMTIKEIEEKYGFKVIYSDTDGFFATIPGADAETVKKKAMEFLKYINAKLPGALELEYEGFYKRGFFVTKKKYAVIDEEGKITTRGLEIVRRDWSEIAKETQARVLEALLKDGDVEKAVRIVKEVTEKLSKYEVPPEKLVIHEQITRDLKDYKATGPHVAVAKRLAARGVKIRPGTVISYIVLKGSGRIGDRAIPFDEFDPTKHKYDAEYYIENQVLPAVERILRAFGYRKEDLRYQKTRQVGLSAWLKPKGT"}, "B2": {"name": "KOD V93Q: modified KOD DNA polymerase with V93Q (protein, listed as Thermococcus kodakaraensis)", "chain": "B1 chain with R36P, V93Q"}, "B3": {"name": "KOD V93K: modified KOD DNA polymerase with V93K (protein, listed as Thermococcus kodakaraensis)", "chain": "B1 chain with R36P, V93K"}, "B4": {"name": "KOD V93R: modified KOD DNA polymerase with V93R (protein, listed as Thermococcus kodakaraensis)", "chain": "B1 chain with R36P, V93R"}, "B5": {"name": "KOD P36H/V93K: modified KOD DNA polymerase with P36H and V93K (protein, listed as Thermococcus kodakaraensis)", "chain": "B1 chain with R36H, V93K"}},
  "key": {"[1]": {"system": "human genomic DNA (about 1.3 kb) with dUTP added", "test": "Evaluation of uracil (dUTP) sensitivity by PCR with dUTP added to the reaction", "format": "biochemical", "settings": "for Evaluation of dUTP resisitance on a 11-point scale: closer to 0 = stronger sensitivity to dUTP, closer to 10 = lower sensitivity, summary of Examples 1 to 3; for dUTP resistance: dUTP added to 0.5, 5, 50, 100, 200 μM, about 1.3 kb, 30 cycles, 1 U enzyme; for PCR products on addition of dUTP: some amount of dUTP added", "method_in_brief": "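Each enzyme (1 U) amplified about 1.3 kb from 10 ng human genomic DNA in KOD-Plus-Ver. 2 buffer with 1.5 mM MgSO4 and 0.2 mM dNTPs. dUTP was added at final 0.5, 5, 50, 100 and 200 μM, over 30 cycles of 98/65/68° C. Sensitivity is the dUTP level still yielding product on ethidium bromide-stained agarose gel.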"}, "[2]": {"system": "Psychrobacter DNA", "test": "PCR amplification using inosine-containing primers", "format": "biochemical", "settings": "primers 75 pmol or 150 pmol, 35 cycles (FIG. 11)", "method": "Using inosine-containing primers, the difference in PCR amplification was compared. For comparison, KOD mutants and KOD (wild-type), each mixed with 1 μg of a KOD antibody per U of the enzyme, and Taq DNA polymerase mixed with an antibody (a mixture of equal amounts of Taq DNA polymerase (produced by Toyobo Co. Ltd.) and Anti-Taq High (produced by Toyobo Co. Ltd.)) were used.\nFor PCR with the KOD mutants and PCR with the KOD, a buffer, MgSO4, and dNTPs included in KOD-Plus-Ver. 2 (produced by Toyobo Co. Ltd.) were used. 50 μl of individual reaction solutions containing 1× PCR buffer, 1.5 mM MgSO4, dNTPs (dATP, dTTP, dCTP, dGTP) in an amount of 0.2 mM, primers (SEQ ID NOs: 40 and 41) in an amount of 75 pmol or 150 pmol, 100 ng of Psychrobacter DNA, and 1 U of each respective enzyme mixed with the antibody were used. PCR was performed using a GeneAmp PCR system 9700 (Applied Biosystems) on the following schedule: preliminary reaction at 94° C. for 2 minutes, followed by 35 cycles, each cycle consisting of 98° C. for 10 seconds, 54° C. for 10 seconds, and 68° C. for 1 minute.\nFor PCR with the Taq DNA polymerase, 50 μl of a reaction solution containing 1× buffer included in Blend Taq (product of Toyobo), dNTPs (dATP, […], dCTP, dGTP) in an amount of 0.2 mM, primers in an amount of 75 pmol or 150 pmol (the same as above), 100 ng of Psychrobacter DNA, and 2.5 U of the enzyme mixed with the antibody was used. PCR was performed using a GeneAmp PCR system 9700 (Applied Biosystems) on the following schedule: preliminary reaction at 94° C. for 2 minutes, followed by 35 cycles, each cycle consisting of 94° C. for 30 seconds, 54° C. for 30 seconds, and 68° C. for 1 minute.\nAfter the completion of each individual reaction, each of the resulting reaction solutions was analyzed using a DNA-1000 kit for MultiNA (produced by Shimadzu Corporation) to confirm amplified DNA fragments."}},
  "note": "Residue numbers refer to the chain shown, from its start. Names and notes keep the numbering of the source.",
  "data": [
    {"molecule": "KOD Y7A/V93K: modified KOD DNA polymerase with Y7A and V93K", "values": [
      {"measurement": "Evaluation of dUTP resisitance on a 11-point scale", "setting": "[1]", "result": 8},
      {"measurement": "dUTP resistance", "setting": "[1]", "result": ">200", "unit": "µM"},
      {"measurement": "amplification with inosine-containing primers", "setting": "[2]", "result": "stable amplification was confirmed"}
    ]},
    {"molecule": "KOD Y7A/P36H: modified KOD DNA polymerase with Y7A and P36H", "values": [
      {"measurement": "Evaluation of dUTP resisitance on a 11-point scale", "setting": "[1]", "result": 8},
      {"measurement": "dUTP resistance", "setting": "[1]", "result": ">200", "unit": "µM"},
      {"measurement": "amplification with inosine-containing primers", "setting": "[2]", "result": "stable amplification was confirmed"}
    ]},
    {"molecule": "KOD N210D/Y7A/P36H: KOD N210D (exo(−)) mutant with Y7A and P36H", "values": [
      {"measurement": "Evaluation of dUTP resisitance on a 11-point scale", "setting": "[1]", "result": 10},
      {"measurement": "dUTP resistance", "setting": "[1]", "result": ">200", "unit": "µM"},
      {"measurement": "amplification with inosine-containing primers", "setting": "[2]", "result": "stable amplification was confirmed"}
    ]},
    {"molecule": "B1", "values": [
      {"measurement": "Evaluation of dUTP resisitance on a 11-point scale", "setting": "[1]", "result": 5},
      {"measurement": "dUTP resistance", "setting": "[1]", "result": ">200", "unit": "µM"},
      {"measurement": "PCR products on addition of dUTP", "setting": "[1]", "result": "PCR products were confirmed"}
    ]},
    {"molecule": "B2", "values": [
      {"measurement": "Evaluation of dUTP resisitance on a 11-point scale", "setting": "[1]", "result": 3},
      {"measurement": "dUTP resistance", "setting": "[1]", "result": 100, "unit": "µM"},
      {"measurement": "PCR products on addition of dUTP", "setting": "[1]", "result": "PCR products were confirmed"}
    ]},
    {"molecule": "B3", "values": [
      {"measurement": "Evaluation of dUTP resisitance on a 11-point scale", "setting": "[1]", "result": 6},
      {"measurement": "dUTP resistance", "setting": "[1]", "result": ">200", "unit": "µM"},
      {"measurement": "PCR products on addition of dUTP", "setting": "[1]", "result": "PCR products were confirmed"}
    ]},
    {"molecule": "B4", "values": [
      {"measurement": "Evaluation of dUTP resisitance on a 11-point scale", "setting": "[1]", "result": 5},
      {"measurement": "dUTP resistance", "setting": "[1]", "result": ">200", "unit": "µM"},
      {"measurement": "PCR products on addition of dUTP", "setting": "[1]", "result": "PCR products were confirmed"}
    ]},
    {"molecule": "B5", "values": [
      {"measurement": "Evaluation of dUTP resisitance on a 11-point scale", "setting": "[1]", "result": 7},
      {"measurement": "dUTP resistance", "setting": "[1]", "result": ">200", "unit": "µM"}
    ]}
  ]
}
